In patent US20100215656A1:

Key:
mesothelin = mesothelin (UniProt Q13421); experiment: cell-based or functional assay
CD22 (human) = CD22 (human) (UniProt P20273); experiment: cell-based or functional assay
Chain of UniProt P20273 (P20273 20-847): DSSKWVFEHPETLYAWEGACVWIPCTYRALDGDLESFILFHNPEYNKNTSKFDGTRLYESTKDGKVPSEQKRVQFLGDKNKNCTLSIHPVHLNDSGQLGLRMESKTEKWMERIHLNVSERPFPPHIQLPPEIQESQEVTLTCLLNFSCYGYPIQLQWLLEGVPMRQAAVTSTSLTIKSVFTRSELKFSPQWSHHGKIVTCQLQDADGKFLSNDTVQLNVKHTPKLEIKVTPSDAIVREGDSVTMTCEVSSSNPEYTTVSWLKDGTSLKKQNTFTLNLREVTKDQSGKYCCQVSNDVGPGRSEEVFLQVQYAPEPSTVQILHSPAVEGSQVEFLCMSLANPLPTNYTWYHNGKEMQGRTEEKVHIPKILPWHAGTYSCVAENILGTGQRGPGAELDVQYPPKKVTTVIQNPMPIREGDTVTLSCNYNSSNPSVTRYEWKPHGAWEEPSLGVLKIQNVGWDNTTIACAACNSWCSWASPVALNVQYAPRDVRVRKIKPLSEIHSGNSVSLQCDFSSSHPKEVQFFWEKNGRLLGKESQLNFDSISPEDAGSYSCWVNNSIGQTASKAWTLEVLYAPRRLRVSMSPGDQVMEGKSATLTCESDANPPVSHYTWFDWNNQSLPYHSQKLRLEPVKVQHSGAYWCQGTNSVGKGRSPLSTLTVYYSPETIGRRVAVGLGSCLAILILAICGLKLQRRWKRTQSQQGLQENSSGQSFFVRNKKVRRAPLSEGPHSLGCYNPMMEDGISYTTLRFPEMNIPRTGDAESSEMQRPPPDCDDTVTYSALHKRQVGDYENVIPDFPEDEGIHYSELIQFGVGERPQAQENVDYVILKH

Chain of UniProt Q13421 (Q13421 other isoform, or with tags, fused parts or gaps limits assumed): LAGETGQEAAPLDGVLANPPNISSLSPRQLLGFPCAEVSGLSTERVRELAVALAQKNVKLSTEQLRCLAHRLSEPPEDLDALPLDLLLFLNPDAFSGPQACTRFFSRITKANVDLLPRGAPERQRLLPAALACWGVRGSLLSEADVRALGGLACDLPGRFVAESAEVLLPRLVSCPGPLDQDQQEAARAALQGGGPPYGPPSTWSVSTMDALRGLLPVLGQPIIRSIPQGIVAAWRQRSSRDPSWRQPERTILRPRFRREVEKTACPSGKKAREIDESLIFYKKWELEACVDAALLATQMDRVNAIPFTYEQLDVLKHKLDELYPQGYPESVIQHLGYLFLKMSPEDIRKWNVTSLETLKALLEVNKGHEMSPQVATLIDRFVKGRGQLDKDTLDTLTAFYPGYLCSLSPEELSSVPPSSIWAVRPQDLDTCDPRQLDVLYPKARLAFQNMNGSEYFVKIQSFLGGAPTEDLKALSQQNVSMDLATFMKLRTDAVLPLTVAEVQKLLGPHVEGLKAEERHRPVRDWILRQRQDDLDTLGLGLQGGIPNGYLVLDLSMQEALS

Question: “SS1-PE-LR (antibody SS1 fused to the PE used in HA22-LR)” was tested. Which IC50 (ng/ml), cytotoxicity on A431/K5 cells (mesothelin) did it give?
Answer: 1.19 ng/mL

Question: What about the IC50 (ng/ml), cytotoxicity on A1847 cells (*Incomplete cell killing) (mesothelin) of the same substance?
Answer: 4.24 ng/mL

Question: What about the IC50 (ng/ml), cytotoxicity on HAY cells (mesothelin) of the same substance?
Answer: 1.22 ng/mL

Question: And the IC50 (ng/ml), cytotoxicity on KB31 cells (*Incomplete cell killing) (mesothelin)?
Answer: > 1000 ng/mL

Question: And the IC50 (ng/ml), cytotoxicity on L55 cells (mesothelin)?
Answer: 3.87 ng/mL

Question: What about the IC50 (ng/ml), cytotoxicity on OVCAR-8 cells (*Incomplete cell killing) (mesothelin) of the same substance?
Answer: 4.29 ng/mL

Question: And the Relative Activity (against the PE38 immunotoxin) on A431/K5 cells (mesothelin)?
Answer: 0.17

Question: What about the Relative Activity (against the PE38 immunotoxin) on A1847 cells (mesothelin) of the same substance?
Answer: 0.96

Question: And the Relative Activity (against the PE38 immunotoxin) on HAY cells (mesothelin)?
Answer: 3.72

Question: What about the Relative Activity (against the PE38 immunotoxin) on KB31 cells (fold decrease) (mesothelin) of the same substance?
Answer: > 200

Question: And the Relative Activity (against the PE38 immunotoxin) on L55 cells (mesothelin)?
Answer: 1.23

Question: And the Relative Activity (against the PE38 immunotoxin) on OVCAR-8 cells (mesothelin)?
Answer: 0.54

Question: For SS1P (antibody SS1 fused to PE38), which IC50 (ng/ml), cytotoxicity on A431/K5 cells (mesothelin) is on record?
Answer: 0.2 ng/mL

Question: What about the IC50 (ng/ml), cytotoxicity on A1847 cells (mesothelin) of the same substance?
Answer: 4.06 ng/mL

Question: What about the IC50 (ng/ml), cytotoxicity on HAY cells (mesothelin) of the same substance?
Answer: 4.54 ng/mL

Question: What about the IC50 (ng/ml), cytotoxicity on KB31 cells (mesothelin) of the same substance?
Answer: 5.15 ng/mL

Question: What about the IC50 (ng/ml), cytotoxicity on L55 cells (mesothelin) of the same substance?
Answer: 4.77 ng/mL

Question: And the IC50 (ng/ml), cytotoxicity on OVCAR-8 cells (mesothelin)?
Answer: 2.32 ng/mL

Question: Which Relative Activity (against HA22) on CA46 cells (CD22 (human)) does the source give for “HA22-LR (anti-CD22 dsFv of HA22 fused to the 25-kDa lysosome-resistant PE fragment, PE25 / PE-LR)” here?
Answer: 1.15

Question: What about the Relative Activity (against HA22) on Daudi cells (CD22 (human)) of the same substance?
Answer: 1.12

Question: And the Relative Activity (against HA22) on KOPN-8 cells (CD22 (human))?
Answer: 0.22

Question: And the Relative Activity (against HA22) on Raji cells (CD22 (human))?
Answer: 0.49

Question: What about the Relative Activity (against HA22) on Ramos cells (CD22 (human)) of the same substance?
Answer: 0.91

Question: What about the Relative Activity (against HA22) on WSU-CLL cells (CD22 (human)) of the same substance?
Answer: 2.12

Question: And the Relative Activity (against HA22), cell death, CLL #1 (CD22 (human))?
Answer: 16.2

Question: And the Relative Activity (against HA22), cell death, CLL #2 (CD22 (human))?
Answer: 7.65

Question: What about the Relative Activity (against HA22), cell death, HCL #2 (CD22 (human)) of the same substance?
Answer: 0.08

Question: And the Relative Activity (against HA22), cell death, HCL #3 (CD22 (human))?
Answer: 1.39

Question: And the Relative Activity (against HA22), protein synthesis, CLL #1 (CD22 (human))?
Answer: > 210

Question: What about the Relative Activity (against HA22), protein synthesis, CLL #2 (CD22 (human)) of the same substance?
Answer: > 16.8

Question: What about the Relative Activity (against HA22), protein synthesis, CLL #3 (CD22 (human)) of the same substance?
Answer: 2.07

Question: What about the Relative Activity (against HA22), protein synthesis, CLL #4 (CD22 (human)) of the same substance?
Answer: 51.8

Question: And the Relative Activity (against HA22), protein synthesis, CLL #5 (CD22 (human))?
Answer: 2.16

Question: And the Relative Activity (against HA22), protein synthesis, HCL #1 (CD22 (human))?
Answer: 0.88

Question: And the Relative Activity (against HA22), protein synthesis, HCL #2 (CD22 (human))?
Answer: 0.14

Question: What about the Relative Activity (against HA22), protein synthesis, HCL #3 (CD22 (human)) of the same substance?
Answer: > 1.76

Question: And the inhibition of protein synthesis at 1 ng/ml, patient cells CLL #2 (CD22 (human))?
Answer: 55%
